Source: publication PMC4157578 (Molecular Cell, 2014)

B1: Mcm7 (subunit of the MCM complex) (natural protein)
chain: MSAALPSIQLPVDYNNLFNEITDFLVTFKQDTLSSDATRNENEDENLDAENIEQHLLEKGPKYMAMLQKVANRELNSVIIDLDDILQYQNEKFLQGTQADDLVSAIQQNANHFTELFCRAIDNNMPLPTKEIDYKDDVLDVILNQRRLRNERMLSDRTNEIRSENLMDTTMDPPSSMNDALREVVEDETELFPPNLTRRYFLYFKPLSQNCARRYRKKAISSKPLSVRQIKGDFLGQLITVRGIITRVSDVKPAVEVIAYTCDQCGYEVFQEVNSRTFTPLSECTSEECSQNQTKGQLFMSTRASKFSAFQECKIQELSQQVPVGHIPRSLNIHVNGTLVRSLSPGDIVDVTGIFLPAPYTGFKALKAGLLTETYLEAQFVRQHKKKFASFSLTSDVEERVMELITSGDVYNRLAKSIAPEIYGNLDVKKALLLLLVGGVDKRVGDGMKIRGDINVCLMGDPGVAKSQLLKAICKISPRGVYTTGKGSSGVGLTAAVMKDPVTDEMILEGGALVLADNGICCIDEFDKMDESDRTAIHEVMEQQTISISKAGINTTLNARTSILAAANPLYGRYNPRLSPLDNINLPAALLSRFDILFLMLDIPSRDDDEKLAEHVTYVHMHNKQPDLDFTPVEPSKMREYIAYAKTKRPVMSEAVNDYVVQAYIRLRQDSKREMDSKFSFGQATPRTLLGIIRLSQALAKLRLADMVDIDDVEEALRLVRVSKESLYQETNKSKEDESPTTKIFTIIKKMLQETGKNTLSYENIVKTVRLRGFTMLQLSNCIQEYSYLNVWHLINEGNTLKFVDDGTMDTDQEDSLVSTPKLAPQTTASANVSAQDSDIDLQDA
B2: CBP-Mcm3 (subunit of the MCM complex) (natural protein)
chain: MEGSTGFDGDATTFFAPDAVFGDRVRRFQEFLDTFTSYRDSVRSIQVYNSNNAANYNDDQDDADERDLLGDDDGDDLEKEKKAASSTSLNILPHRIIISLDDLREFDRSFWSGILVEPAYFIPPAEKALTDLADSMDDVPHPNASAVSSRHPWKLSFKGSFGAHALSPRTLTAQHLNKLVSVEGIVTKTSLVRPKLIRSVHYAAKTGRFHYRDYTDATTTLTTRIPTPAIYPTEDTEGNKLTTEYGYSTFIDHQRITVQEMPEMAPAGQLPRSIDVILDDDLVDKTKPGDRVNVVGVFKSLGAGGMNQSNSNTLIGFKTLILGNTVYPLHARSTGVAARQMLTDFDIRNINKLSKKKDIFDILSQSLAPSIYGHDHIKKAILLMLMGGVEKNLENGSHLRGDINILMVGDPSTAKSQLLRFVLNTASLAIATTGRGSSGVGLTAAVTTDRETGERRLEAGAMVLADRGVVCIDEFDKMTDVDRVAIHEVMEQQTVTIAKAGIHTTLNARCSVIAAANPVFGQYDVNRDPHQNIALPDSLLSRFDLLFVVTDDINEIRDRSISEHVLRTHRYLPPGYLEGEPVRERLNLSLAVGEDADINPEEHSNSGAGVENEGEDDEDHVFEKFNPLLQAGAKLAKNKGNYNGTEIPKLVTIPFLRKYVQYAKERVIPQLTQEAINVIVKNYTDLRNDDNTKKSPITARTLETLIRLATAHAKVRLSKTVNKVDAKVAANLLRFALLGEDIGNDIDEEESEYEEALSKRSPQKSPKKRQRVRQPASNSGSPIKSTPRRSTASSVNATPSSARRILRFQDDEQNAGEDDNDIMSPLPADEEAELQRRLQLGLRVSPRRREHLHAPEEGSSGPLTEVGTPRLPNVSSAGQDDEQQQSVISFDNVEPGTISTGRLSLISGIIARLMQTEIFEEESYPVASLFERINEELPEEEKFSAQEYLAGLKIMSDRNNLMVADDKVWRV

Columns and labels:
Experiment in all cases: SEC
[1] = target: B1
[2] = target: B2
[3] = target: Mcm6 (subunit of the MCM complex) (S. cerevisiae, UniProt P53091 1-1017)
Sequence of Mcm6 (subunit of the MCM complex) (P53091 whole entry, one chain of several): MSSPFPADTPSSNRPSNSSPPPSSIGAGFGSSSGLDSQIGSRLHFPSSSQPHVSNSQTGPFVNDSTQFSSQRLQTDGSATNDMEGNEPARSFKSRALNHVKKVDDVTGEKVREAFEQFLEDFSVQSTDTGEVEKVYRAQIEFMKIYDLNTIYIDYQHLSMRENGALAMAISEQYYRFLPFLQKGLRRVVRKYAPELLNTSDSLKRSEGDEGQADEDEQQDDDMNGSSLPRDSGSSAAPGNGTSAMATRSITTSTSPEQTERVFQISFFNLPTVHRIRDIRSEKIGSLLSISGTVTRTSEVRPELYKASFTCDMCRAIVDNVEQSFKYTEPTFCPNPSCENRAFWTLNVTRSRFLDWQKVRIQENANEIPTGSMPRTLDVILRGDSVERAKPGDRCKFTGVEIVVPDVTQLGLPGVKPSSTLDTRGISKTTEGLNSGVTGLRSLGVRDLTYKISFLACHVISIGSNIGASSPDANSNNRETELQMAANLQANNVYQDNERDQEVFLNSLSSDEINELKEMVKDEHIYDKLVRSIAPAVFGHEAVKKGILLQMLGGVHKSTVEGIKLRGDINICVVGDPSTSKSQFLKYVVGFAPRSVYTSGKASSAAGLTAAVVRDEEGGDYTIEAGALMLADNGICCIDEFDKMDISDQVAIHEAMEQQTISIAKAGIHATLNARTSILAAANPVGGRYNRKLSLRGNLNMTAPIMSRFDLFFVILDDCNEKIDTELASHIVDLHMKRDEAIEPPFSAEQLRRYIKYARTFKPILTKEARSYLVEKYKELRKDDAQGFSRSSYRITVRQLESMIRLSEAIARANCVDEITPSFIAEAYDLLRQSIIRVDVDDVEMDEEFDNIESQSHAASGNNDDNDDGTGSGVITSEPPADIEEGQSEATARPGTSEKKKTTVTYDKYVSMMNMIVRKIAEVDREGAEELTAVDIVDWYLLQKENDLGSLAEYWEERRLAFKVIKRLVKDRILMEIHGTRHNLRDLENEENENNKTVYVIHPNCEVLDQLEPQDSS

Row | Binder | binding result [2] | also measured
1 | Mcm5 (subunit of the MCM complex) (natural protein) MSFDRPEIYSAPVLQGESPNDDDNTEIIKSFKNFILEFRLDSQFIYRDQLRNNILVKNYSLTVNMEHLIGYNEDIYKKLSDEPSDIIPLFETAITQVAKRISILSRAQSANNNDKDPENTSMDTDSLLLNSLPTFQLILNSNANQIPLRDLDSEHVSKIVRLSGIIISTSVLSSRATYLSIMCRNCRHTTSITINNFNSITGNTVSLPRSCLSTIESESSMANESNIGDESTKKNCGPDPYIIIHESSKFIDQQFLKLQEIPELVPVGEMPRNLTMTCDRYLTNKVIPGTRVTIVGIYSIYNSKNGAGSGRSGGGNGGSGVAIRTPYIKILGIQSDVETSSIWNSVTMFTEEEEEEFLQLSRNPKLYEILTNSIAPSIFGNEDIKKAIVCLLMGGSKKILPDGMRLRGDINVLLLGDPGTAKSQLLKFVEKVSPIAVYTSGKGSSAAGLTASVQRDPMTREFYLEGGAMVLADGGVVCIDEFDKMRDEDRVAIHEAMEQQTISIAKAGITTVLNSRTSVLAAANPIYGRYDDLKSPGDNIDFQTTILSRFDMIFIVKDDHNEERDISIANHVINIHTGNANAMQNQQEENGSEISIEKMKRYITYCRLKCAPRLSPQAAEKLSSNFVTIRKQLLINELESTERSSIPITIRQLEAIIRITESLAKLELSPIAQERHVDEAIRLFQASTMDAASQDPIGGLNQASGTSLSEIRRFEQELKRRLPIGWSTSYQTLRREFVDTHRFSQLALDKALYALEKHETIQLRHQGQNIYRSGV |  | binding result [1]: binds
2 | B1 | binds | 
3 | Mcm2 (subunit of the MCM complex) (natural protein) MSDNRRRRREEDDSDSENELPPSSPQQHFRGGMNPVSSPIGSPDMINPEGDDNEVDDVPDIDEVEEQMNEVDLMDDNMYEDYAADHNRDRYDPDQVDDREQQELSLSERRRIDAQLNERDRLLRNVAYIDDEDEEQEGAAQLDEMGLPVQRRRRRRQYEDLENSDDDLLSDMDIDPLREELTLESLSNVKANSYSEWITQPNVSRTIARELKSFLLEYTDETGRSVYGARIRTLGEMNSESLEVNYRHLAESKAILALFLAKCPEEMLKIFDLVAMEATELHYPDYARIHSEIHVRISDFPTIYSLRELRESNLSSLVRVTGVVTRRTGVFPQLKYVKFNCLKCGSILGPFFQDSNEEIRISFCTNCKSKGPFRVNGEKTVYRNYQRVTLQEAPGTVPPGRLPRHREVILLADLVDVSKPGEEVEVTGIYKNNYDGNLNAKNGFPVFATIIEANSIKRREGNTANEGEEGLDVFSWTEEEEREFRKISRDRGIIDKIISSMAPSIYGHRDIKTAVACSLFGGVPKNVNGKHSIRGDINVLLLGDPGTAKSQILKYVEKTAHRAVFATGQGASAVGLTASVRKDPITKEWTLEGGALVLADKGVCLIDEFDKMNDQDRTSIHEAMEQQSISISKAGIVTTLQARCSIIAAANPNGGRYNSTLPLAQNVSLTEPILSRFDILCVVRDLVDEEADERLATFVVDSHVRSHPENDEDREGEELKNNGESAIEQGEDEINEQLNARQRRLQRQRKKEEEISPIPQELLMKYIHYARTKIYPKLHQMDMDKVSRVYADLRRESISTGSFPITVRHLESILRIAESFAKMRLSEFVSSYDLDRAIKVVVDSFVDAQKVSVRRQLRRSFAIYTLGH | binds | 
4 | Mcm4 (subunit of the MCM complex) (natural protein) MSQQSSSPTKEDNNSSSPVVPNPDSVPPQLSSPALFYSSSSSQGDIYGRNNSQNLSQGEGNIRAAIGSSPLNFPSSSQRQNSDVFQSQGRQGRIRSSASASGRSRYHSDLRSDRALPTSSSSLGRNGQNRVHMRRNDIHTSDLSSPRRIVDFDTRSGVNTLDTSSSSAPPSEASEPLRIIWGTNVSIQECTTNFRNFLMSFKYKFRKILDEREEFINNTTDEELYYIKQLNEMRELGTSNLNLDARNLLAYKQTEDLYHQLLNYPQEVISIMDQTIKDCMVSLIVDNNLDYDLDEIETKFYKVRPYNVGSCKGMRELNPNDIDKLINLKGLVLRSTPVIPDMKVAFFKCNVCDHTMAVEIDRGVIQEPARCERIDCNEPNSMSLIHNRCSFADKQVIKLQETPDFVPDGQTPHSISLCVYDELVDSCRAGDRIEVTGTFRSIPIRANSRQRVLKSLYKTYVDVVHVKKVSDKRLDVDTSTIEQELMQNKVDHNEVEEVRQITDQDLAKIREVAAREDLYSLLARSIAPSIYELEDVKKGILLQLFGGTNKTFTKGGRYRGDINILLCGDPSTSKSQILQYVHKITPRGVYTSGKGSSAVGLTAYITRDVDTKQLVLESGALVLSDGGVCCIDEFDKMSDSTRSVLHEVMEQQTISIAKAGIITTLNARSSILASANPIGSRYNPNLPVTENIDLPPPLLSRFDLVYLVLDKVDEKNDRELAKHLTNLYLEDKPEHISQDDVLPVEFLTMYISYAKEHIHPIITEAAKTELVRAYVGMRKMGDDSRSDEKRITATTRQLESMIRLAEAHAKMKLKNVVELEDVQEAVRLIRSAIKDYATDPKTGKIDMNLVQTGKSVIQRKLQEDLSREIMNVLKDQASDSMSFNELIKQINEHSQDRVESSDIQEALSRLQQEDKVIVLGEGVRRSVRLNNRV | binds | 
5 | B2 |  | binding result [3]: binds
